{"source": "patent US20140329706A1", "about": "(CALIFORNIA INSTITUTE OF TECHNOLOGY, published 2014)", "key": {"[1]": {"target": "T1, GST (control, expressed alone without a PDZ domain) (UniProt P08515 1-218 = GST)", "T1 construct": "also called Glutathione S-Transferase", "T1 sequence (P08515 whole entry, the tested form may be a part)": "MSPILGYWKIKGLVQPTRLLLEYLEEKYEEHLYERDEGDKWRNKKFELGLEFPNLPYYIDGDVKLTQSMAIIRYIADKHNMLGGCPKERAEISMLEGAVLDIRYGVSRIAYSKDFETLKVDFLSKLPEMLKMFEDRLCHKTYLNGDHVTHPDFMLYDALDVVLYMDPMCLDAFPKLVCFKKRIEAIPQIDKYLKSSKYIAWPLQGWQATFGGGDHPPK", "assay": "affinity pull-down from clarified E. coli lysate on PSD-95 PDZ2 resin, wash, elution with free SIESDV peptide (400 ug/ml), SDS-PAGE with GelCode Blue", "description": "(§1) Resuspended cells were incubated on a shaking platform at low speed for 20 minutes at room temperature before the lysate was clarified by centrifugation at 16,000×g for 30 min at 4° C. […] The mixtures were then subjected to centrifugation at 1000×g for 2 min, and the supernatant was removed by pipetting. […] The cap was removed and the resin washed with 20 column volumes of Purification Buffer."}, "[2]": {"target": "T2, HaloTag-PDZ1+PDZ2 fusion protein (residues 61 to 249 of Mus musculus PSD-95) (Mus musculus, UniProt Q62108 61-249)", "T2 construct": "range 61-249; also called PSD-95 PDZ1-PDZ2; not shown: HaloTag", "assay": "affinity chromatography on HaloTag-PDZ1+PDZ2 resin, SIESDV peptide elution, SDS-PAGE"}, "[3]": {"target": "T3, MBP (control, expressed alone without a PDZ domain) (UniProt P0AEX9 27-392 = MBP)", "assay": "affinity chromatography on … peptide resin, SDS-PAGE", "description": "as §1"}, "[4]": {"target": "T1, GST (control, expressed alone without a …)", "assay": "affinity chromatography on … peptide resin, SDS-PAGE", "description": "as §1"}, "[5]": {"target": "T3, MBP (control, expressed alone without a …)", "assay": "affinity chromatography on 1× nNOS PDZ-β-hairpin resin, SDS-PAGE", "description": "as §1"}, "[6]": {"target": "T1, GST (control, expressed alone without a …)", "assay": "affinity chromatography on 1× nNOS PDZ-β-hairpin resin, SDS-PAGE", "description": "as §1"}, "[7]": {"target": "T3, MBP (control, expressed alone without a …)", "assay": "affinity chromatography on 2× nNOS PDZ-β-hairpin resin, SDS-PAGE", "description": "as §1"}}, "data": [{"binder": "PDZ2 domain of PSD-95 (other, UniProt Q62108 160-246, looked up, domain: PDZ2; Species (Mus musculus) is stated only for the PDZ1+PDZ2 construct; also called PSD-95 PDZ2) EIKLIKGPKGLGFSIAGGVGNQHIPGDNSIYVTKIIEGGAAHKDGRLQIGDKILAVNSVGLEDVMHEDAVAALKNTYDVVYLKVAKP", "values": [{"measurement": "binding result", "setting": "[1]", "result": "no binding"}]}, {"binder": "cypin (guanine deaminase, Homo sapiens: AA 1-454) (other, UniProt Q9Y2T3 1-454, looked up, range 1-454; also called untagged cypin) MCAAQMPPLAHIFRGTFVHSTWTCPMEVLRDHLLGVSDSGKIVFLEEASQQEKLAKEWCFKPCEIRELSHHEFFMPGLVDTHIHASQYSFAGSSIDLPLLEWLTKYTFPAEHRFQNIDFAEEVYTRVVRRTLKNGTTTACYFATIHTDSSLLLADITDKFGQRAFVGKVCMDLNDTFPEYKETTEESIKETERFVSEMLQKNYSRVKPIVTPRFSLSCSETLMGELGNIAKTRDLHIQSHISENRDEVEAVKNLYPSYKNYTSVYDKNNLLTNKTVMAHGCYLSAEELNVFHERGASIAHCPNSNLSLSSGFLNVLEVLKHEVKIGLGTDVAGGYSYSMLDAIRRAVMVSNILLINKVNEKSLTLKEVFRLATLGGSQALGLDGEIGNFEVGKEFDAILINPKASDSPIDLFYGDFFGDISEAVIQKFLYLGDDRNIEEVYVGGKQVVPFSSSV", "values": [{"measurement": "binding result", "setting": "[2]", "result": "binds"}]}, {"binder": "MBP-cypin (other, Homo sapiens, UniProt Q9Y2T3 1-454, looked up, not shown: large carriers, range 1-454; also called cypin fused to an N-terminal MBP) MCAAQMPPLAHIFRGTFVHSTWTCPMEVLRDHLLGVSDSGKIVFLEEASQQEKLAKEWCFKPCEIRELSHHEFFMPGLVDTHIHASQYSFAGSSIDLPLLEWLTKYTFPAEHRFQNIDFAEEVYTRVVRRTLKNGTTTACYFATIHTDSSLLLADITDKFGQRAFVGKVCMDLNDTFPEYKETTEESIKETERFVSEMLQKNYSRVKPIVTPRFSLSCSETLMGELGNIAKTRDLHIQSHISENRDEVEAVKNLYPSYKNYTSVYDKNNLLTNKTVMAHGCYLSAEELNVFHERGASIAHCPNSNLSLSSGFLNVLEVLKHEVKIGLGTDVAGGYSYSMLDAIRRAVMVSNILLINKVNEKSLTLKEVFRLATLGGSQALGLDGEIGNFEVGKEFDAILINPKASDSPIDLFYGDFFGDISEAVIQKFLYLGDDRNIEEVYVGGKQVVPFSSSV", "values": [{"measurement": "binding result", "setting": "[2]", "result": "binds"}]}, {"binder": "GAGSSIESDV (also called GluN2B ligand-NHS-Agarose)", "note": "[NR2B (GluN2B) peptide ligand GAGSSIESDV]", "values": [{"measurement": "binding result", "setting": "[3]", "result": "no binding"}, {"measurement": "binding result", "setting": "[4]", "result": "no binding"}]}, {"binder": "nNOS PDZ domain (AA 11-129 of Mus musculus nNOS) (other, UniProt Q9Z0J4 11-129, looked up, range 11-129; also called 1× nNOS PDZ domain; 1× nNOS PDZ-β-hairpin domain) IQPNVISVRLFKRKVGGLGFLVKERVSKPPVIISDLIRGGAAEQSGLIQAGDIILAVNDRPLVDLSYDSALEVLRGIASETHVVLILRGPEGFTTHLETTFTGDGTPKTIRVTQPLGTP", "values": [{"measurement": "binding result", "setting": "[5]", "result": "no binding"}, {"measurement": "binding result", "setting": "[6]", "result": "no binding"}]}, {"binder": "2× nNOS PDZ domain fusion protein that contains a BH after each nNOS PDZ domain (other, domain: nNOS PDZ domain with β-Hairpin; also called nNOS-BH-nNOS-BH; 2× nNOS PDZ-β-hairpin domains) QPNVISVRLFKRKVGGLGFLVKERVSKPPVIISDLIRGGAAEQSGLIQAGDIILAVNDRPLVDLSYDSALEVLRGIASETHVVLILRGPEGFTTHLETTFTGDGTPKTIRVTQPLGTPTQPNVISVRLFKRKVGGLGFLVKERVSKPPVIISDLIRGGAAEQSGLIQAGDIILAVNDRPLVDLSYDSALEVLRGIASETHVVLILRGPEGFTTHLETTFTGDGTPKTIRVTQPLGTPT", "values": [{"measurement": "binding result", "setting": "[7]", "result": "no binding"}]}]}
